According to publication PMC11565809 (bioRxiv, 2024):

Target: human factor H (human, UniProt P08603 19-1231)
Assay: ELISA

human factor H, sequence (P08603 19-1231): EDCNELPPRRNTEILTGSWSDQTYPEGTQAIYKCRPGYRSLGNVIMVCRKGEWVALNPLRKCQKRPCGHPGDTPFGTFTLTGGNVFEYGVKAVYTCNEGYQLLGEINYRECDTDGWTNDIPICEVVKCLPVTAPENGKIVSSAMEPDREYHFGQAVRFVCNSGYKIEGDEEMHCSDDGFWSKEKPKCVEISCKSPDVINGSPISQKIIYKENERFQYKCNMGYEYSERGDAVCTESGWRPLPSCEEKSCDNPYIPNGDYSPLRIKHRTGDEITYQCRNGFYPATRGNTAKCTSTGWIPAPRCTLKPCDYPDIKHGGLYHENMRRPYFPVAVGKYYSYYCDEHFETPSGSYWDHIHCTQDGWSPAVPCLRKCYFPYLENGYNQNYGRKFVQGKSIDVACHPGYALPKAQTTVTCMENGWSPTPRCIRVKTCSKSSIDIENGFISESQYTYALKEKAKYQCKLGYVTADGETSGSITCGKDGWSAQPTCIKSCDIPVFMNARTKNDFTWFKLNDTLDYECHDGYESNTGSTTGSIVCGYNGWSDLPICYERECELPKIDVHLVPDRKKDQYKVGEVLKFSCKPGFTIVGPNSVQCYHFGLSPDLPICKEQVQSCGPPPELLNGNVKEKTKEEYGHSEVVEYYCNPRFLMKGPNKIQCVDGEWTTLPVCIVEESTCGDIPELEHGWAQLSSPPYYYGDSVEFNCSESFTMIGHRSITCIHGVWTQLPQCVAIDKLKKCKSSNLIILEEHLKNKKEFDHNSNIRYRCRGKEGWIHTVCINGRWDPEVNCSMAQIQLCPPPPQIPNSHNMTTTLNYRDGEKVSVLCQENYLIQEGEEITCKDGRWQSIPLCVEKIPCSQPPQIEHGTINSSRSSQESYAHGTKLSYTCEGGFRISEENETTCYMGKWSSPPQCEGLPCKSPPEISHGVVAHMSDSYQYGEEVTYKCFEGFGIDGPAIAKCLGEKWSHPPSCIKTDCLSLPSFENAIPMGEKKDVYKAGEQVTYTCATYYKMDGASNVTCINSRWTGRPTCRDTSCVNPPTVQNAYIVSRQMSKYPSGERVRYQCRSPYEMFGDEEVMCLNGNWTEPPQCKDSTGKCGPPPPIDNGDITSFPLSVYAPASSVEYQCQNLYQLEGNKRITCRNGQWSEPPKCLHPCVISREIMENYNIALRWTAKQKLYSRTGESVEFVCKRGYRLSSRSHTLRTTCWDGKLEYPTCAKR

B1: histidine-tagged CspZ (natural protein, B. burgdorferi)
chain: RLNQRNINELKIFVEKAKYYSIKLDAIYNECTGAYNDIMTYSEGTFSDQSKVNQAISIFKKDNKIVNKFKELEKIIEEYKPMFLSKLIDDFAIELDQAVDNDVSNARHVADSYKKLRKSVVLAYIESFDVISSKFVDSKFVEASKKFVNKAKEFVEENDLIALECIVKTIGDMVNDREINSRSRYNNFYKKEADFLGAAVELEGAYKAIKQTLL
  binding result: binds
